Data on one molecule can be found in PMC11160874 (2024).

The target of test [1] is T1, microtubule (alpha/beta-tubulin, taxol-stabilized) (Sus scrofa, UniProt P02550).
T1 chain 1: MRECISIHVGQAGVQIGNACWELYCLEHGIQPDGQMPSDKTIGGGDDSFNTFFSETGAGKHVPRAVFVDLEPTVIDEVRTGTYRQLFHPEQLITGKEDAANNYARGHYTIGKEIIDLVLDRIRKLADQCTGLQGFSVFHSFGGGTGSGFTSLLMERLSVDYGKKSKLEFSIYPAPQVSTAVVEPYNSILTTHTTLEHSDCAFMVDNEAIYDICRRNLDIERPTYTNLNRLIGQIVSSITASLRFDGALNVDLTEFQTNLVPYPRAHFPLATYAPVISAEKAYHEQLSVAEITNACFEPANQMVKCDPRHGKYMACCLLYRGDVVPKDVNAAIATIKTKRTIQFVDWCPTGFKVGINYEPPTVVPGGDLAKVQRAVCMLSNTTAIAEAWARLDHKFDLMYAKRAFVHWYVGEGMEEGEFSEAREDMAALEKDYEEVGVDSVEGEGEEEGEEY
T1 chain 2: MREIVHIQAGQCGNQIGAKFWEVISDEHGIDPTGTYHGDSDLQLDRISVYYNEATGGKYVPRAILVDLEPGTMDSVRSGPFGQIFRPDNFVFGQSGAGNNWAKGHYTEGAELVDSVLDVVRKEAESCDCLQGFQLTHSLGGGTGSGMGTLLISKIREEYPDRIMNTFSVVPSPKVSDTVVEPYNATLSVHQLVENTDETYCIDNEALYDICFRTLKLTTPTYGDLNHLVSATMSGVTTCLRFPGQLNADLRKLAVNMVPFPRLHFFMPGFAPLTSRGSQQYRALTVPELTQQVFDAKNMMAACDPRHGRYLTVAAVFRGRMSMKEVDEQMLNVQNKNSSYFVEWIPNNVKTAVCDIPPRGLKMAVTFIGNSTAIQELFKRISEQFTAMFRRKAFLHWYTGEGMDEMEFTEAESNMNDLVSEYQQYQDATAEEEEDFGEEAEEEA
Description: TIRF microscopy, 150 mM salt.

Test [2] concerns the target T1, microtubule (alpha/beta-tubulin, …). Description: TIRF microscopy, no added salt.

B1: HURP 1-285 (protein)
chain: MSSSHFASRHRKDISTEMIRTKIAHRKSLSQKENRHKEYERNRHFGLKDVNIPTLEGRILVELDETSQGLVPEKTNVKPRAMKTILGDQRKQMLQKYKEEKQLQKLKEQREKAKRGIFKVGRYRPDMPCFLLSNQNAVKAEPKKAIPSSVRITRSKAKDQMEQTKIDNESDVRAIRPGPRQTSEKKVSDKEKKVVQPVMPTSLRMTRSATQAAKQVPRTVSSTTARKPVTRAANENEPEGKVPSKGRPAKNVETKPDKGISCKVDSEENTLNSQTNATSGMNPDG
modifications: C-terminal eGFP, taxol-stabilized microtubules
Consider B1, for which the figures for the Kd in test [1] and in test [2] were ~600 nM and ~33 nM, respectively.
